# Test: soluble on expression in E. coli; label from the status in PepcDB or PDB records
row,Sequence,soluble on expression in E. coli
1,MIRVMLSQLSSVLNARLIGEDRAVSAVSTDSRAIPAEALFVALVGERFDAHDFASQAVTGGAVALLVERELDAECSQLVVADTKQALGQLGSWVHAQCQTPTVAITGSCGKTTVKEMVASILSQKGQVLYTQGNFNNDIGVPLTLLRSTTEDDYAVIELGANHVGEIAYTTALVKPDVALVNNVAAAHLEGFGSMDGVKRAKGEIYQGLQAGAVAIVNLDSNGGDYWKAVLADKTVKTFSATDHNADFYPRDVRLNALGIASFTLVTPVGEVGVELGIMGQHNVANALAAAALSLEMGASLAEIGQGLAHLSKVKGRVDMAQLRDDITLIDDSYNASVPAMKAAVELLGSFSAVRWLILGNMAELGDESLALHQQVGEHAAPFGFEFVLTYGKDAKVISDLCQGHHFATHQDMMTFIEQHIEQQQGRTQVLLVKGANSAGMSKIAAALKEKFA,not soluble
2,MISANKQFDIQLGDEIGKDFFTQDTVVCAFRNKEKTTDFVFTSGPIILICDGTTRRKMIKRRFKMEFDIKKVFFHSFIVTRNAEKLATENCGGPDTKHRDYLVVCGEHKLQFISLPDYHFYHYEIPFKLRNVFSCSTSLLVERFYDSSSEQTFHHHDTFHLYSLSGPFGELLPVIYKTSGYHPQWKFCWQSHRDEAGLVDAQQNYVVVYDQKEKTHRIYMARETQEQEVHAAIRYVEALRRPSDSTMFASSLAPNSAGRTTHFDPTLNSPAENVLSEVISSEIDSRSPFTPHLRSGFGHSTPNNPNAPGYPATLPTPNFEGNFFF,not soluble
3,MISAPGIGSGLDVSGIISKLMEIEQQPLTQLNTKEAKQQAQLSAFGSLKSVLSTFQDSVKALAKPALFNGYKATLADTTAATVSTSSSASAGTHDIEVQSLAQAQKIKSEAFATTDTVIGSGTLTIEFGTYNEDGTFTANAEKTAKTITIDPAKSTLADIRSAINEANAGVTASIVNDGSGNRLVISSKDSGLANALKISVNDTDGNHTDNAGLSKLAFDASTGGVSNMTETVAARNAVMVIDGIPVTKSSNTINDALEGVTFNLLKANPGTTTTLTVEKDKSNVEAAVNAFVKAYNDLEKTIGNLSRYDAANKQASVLTGDSTMRMIQNRMRAMLGGNQSAAGGINSLSELGISFQKDGTLALDNNKLSAVLNNPDKNIAAFFTTQGGDDTTSVEGFASRLSELIDGMTRSDGLISSRMDGINSTIKGIGKQREALEFRLESVEKRLRAQFTALDTMIASMNQTSNYLQQQLANLPKIGE,not soluble
4,MISRTFLLLFFVFSISKCEVQLGCTSPPLPDANGLCPDGYTLITAGGCCPDSDVYIISATTTTTTTTQAPTTTASSGSCQDKVNPKTGVSDCPGMKAYCNNPAYVSVMKDQCPKTCGYCSSSATTAGTCQDKINPSTGRSDCPGMAAYCNNPVYHDVMKDQCPKTCGYC,not soluble
5,MISSSLPSSNAASSSEGRITQAKDVQGFSQRSASGQTPLNQSAALSEQAVPSFRLAAQTFSSEERKEATTATTEENAAVDTTGMNVLLSATTPTETPDLAAQAQTLTQGMLNMAEKSVASFNKVNPLEIKGEAKTTSPAQANALLNTSPQQQDIQTSQTTSANARVNTSAVDFQALLNQPAQGQATTAPLNVQTSAPSAQAVSAATVAHAHTQGSEWAAVKVDTSAGKWGEQMMQVLHDRVTLQAQQSVQEAKIRLDPPDLGKLDLLVRVEGDRLSVQINANTAATREALMQVSERLRTELQEQNFVHVDVNVGADQGQERHQQQMNDEDTTIFAARESSAFQSNTTTNYSEHWLNTQA,not soluble
6,MISTNGITMQFGAKPLFENVSVKFGEGNRYGLIGANGSGKSTFMKILGGDLEQTAGEVAIENGVRLGKLRQDQFAYEDMRVLDVVMMGHTEMWAAMTERDAIYANPEATEDDYMKAAELEAKFAEYDGYTAEARAAELLSGVGISEDLHNAKMAEVAPGFKLRVLLAQALFSKPDVLLLDEPTNNLDINTIRWLEGVLNQYDSTMIIISHDRHFLNEVCTHMADLDYNTITIYPGNYDDYMLASAQSRERALKDNAKAKEKLQELQEFVARFSANKSKARQATSRLKQADKIKSEMVEVKPSTRQNPYIRFEADEKAKLHRQAVEVEKLAKRFETQLFKNLNFILEAGQRLAIIGPNGAGKSTLLKLLAGAYNPEYSDGLLPDEGTIKWAEKASVGYYPQDHENDFDVDMDLSEWMRQWGQEGDDEQVIRGTLGRLLFGSNDVVKKVKVLSGGEKGRMLYGKLLLLKPNVLVMDEPTNHMDMESIESLNMALEKYNGTLIFVSHDRQFVSSLATQIIELDGKGGYEHYLGDYESYLEKKGVA,not soluble
7,MITAYIALGSNLNTPVEQLHAALKAISQLSNTHLVTTSSFYKSKPLGPQDQPDYVNAVAKIETELSPLKLLDELQRIENEQGRVRLRRWGERTLDLDILLYGNEIIQNERLTIPHYDMHNREFVIVPLFEIASDLVLPNSQIITELVKQFADHKMIKLNP,soluble
8,MITLGFMSLSRQHEADYSAELAKRAPEFGIRFIRFTPFDISPDTLRVKASVYHSASSTWNETEMAIPDYIYDRCFYGKDSHSQKAKPIVEWLKKYPKTEFIGRGLPDKWTVLHDLQQHSVINPYIPETIKVSRYEQIHSFLSKEKACILKPAFGAGGRGVILLKLGKKNITATYHIGKDKQTKTFSNQTSFKTWCKKVLQHQYLLQPYLNIQDKEQYPCDIRLFMEKNEAGEWNTVGKAVRRGYKHGLLANLSGGSDALTFDSWFEDIPKKQQVVLLDDVFSITQSVPYYLDERYGPLFELGLDICLAKDGRIWILDINSKPGRKSILRVSPEQKEQLYTCPLKRCQYLFSEQSQKGVLPRES,not soluble
9,MITQSSLLTYPLAGCLNRLANKSSQVKQRLQTHANETVCFRIDSLASLSVTITQDGHFTTAAKDTQAAVILDIAAELIPRIASGEMAAFDKIIICGDPELADTLLYMGKIFQAGIEENLSSVMGDVLARRATLTGQELVRWHLGSIRNLSRALGEFLSEEQPVTASRNRFHQLASEVESLQRRILRLEKRITALVPSFSSIAGNLPRTGR,not soluble
10,MITSTNKEAYPNTLIVILGHDEGRSSFEEKEDVTRVTNDKGETIGFNFFNVDKLIDFDKLPNGPVKLSDDELEALNKKLAEVGFDDKLEYGKPTLVYGYVKTCEKHPDSDHLHVTTIEVGDGEEHQIVCGAPNIAQGQKVVVALPGTLMPNGAQIWPGKLRGVDSYGMICSARELGLPHAPQKRGIMVVPDSFEVGAEFEPTKCDELIASGEITLLEHHHHHH,soluble
11,MIVRFAGRRGVVSTCNLNGGYREDLRYAFNNSCGRDPDVIAKRSVGMRGKTMIEHYAALAEELGLPLDKTTGMGTAALIENTATSSRQYHGVTVMAVATAGIDVNGGRAGEPAAYNEFTQTDLIKPGTINVFLFIDASLDAGTLTRALVTATEAKSAALQELMANSMYSEDLATGSGTDSLIAICNKESEIVLQNSGKHVLLGEMIGQSVKEAITEALSRQTKMTPTRQASIEWQTKRYGITREAIVSECLRLYPHLKKEVVEAGIGGIDRDNRLVAAVAAIAHLCDQNRWQIISDKSMTCTAENILHTILSERGISEEANRKDIVCGQDAPAYRQVLSLCLHTLARILHNRIIHSSL,not soluble
12,MIYIGFYPKFNISGFSIGINTGVRFDVSSKLHYETSSASENINNEVKPRTYIRGTFDYSVFFKDNMAINVGLYIGYDWGFAWSDTYANADVVKNESFGNLDLGIQVGYRFGPKF,not soluble
13,MKAFDIMKASQIACCFEVGSFKPGNVHKNRDYDDIKYHHFISSGIAFGDVIHQACLEKNNIGNFIKKGVIESKKWSPTNANLGIIMLHMPIAIAASNLDKFSESALKKETEKIIKNTTVQDAIDVYRAIEIALAFVNAPENGPDLKSKDAKDELIEKNLTLYDVFKISSTWDSISNEWTENFKISYKGYNLIKEYYEKYNNINIAVTKTFINLLSNYPDTLIARKKGIDVSKMVSEKAKEVLNNFNEESVLEFDKFLSKEGNKLNPGTTADLIASSLLIFLLDRISNEKTILY,not soluble
14,MKAKITGEDDVRVGLHVTDNNGVKHKIEMEFNGEIKYHNQDGYPDKPKNRTPNGNAHVNQTCRYARYHVYQETEYTPLPPEENLPGIKKVKQAIADLSVKEFEAYFSDTYDQVLSNHPSVTPPVPHPESVPQNGYILYLIDVYLDDNDEIEAVSDIHLQYLDENGDKTQDWNDDPFPDRQPDARLQLFGKYVPSMDVFQEFVVYHLRCQLRDVYIGAGLEPPEKYRVLGRGDDDLTSRYHNDKVTIYDDYHLEEADIPGYELEFDYGFGELGKQSVINAKRKGIGAENPDDADSRLANPSQDGEEGLLETVSSVLRGSDTDQTET,not soluble
15,MKALTLKVFYENSDPNKSSSKQAKYLAIADALRKAIRERQIAPTEALPSARKLAQQLSVNRHTIMAALAELVAQGWVEVRERSGYRVVENLPIQGSRTINKVAKTPQSFDWKFRVKQTFAVTPKVKASEYPYNFSGGQPDIRKFPFDEFKSHFSQTCQRPKIDDLSYGDSRGEAELIEEIATYLRRVRSITDKELMICNGSQEALYMISQLLLQPGDKVAVEQLGYPPAWAAFERTGATLIAVKQDERGINPEHLAQVFAKGKVKLLYLTPLHQYPTTVSLDISRRMQIYQLAVQYGVAIVEDDYDHEFHYDSQPIAPMAADDPAGLVIYISTFSKLMFGGARIGYVVANNALIEQVAAYKMVMNHKCNVLVQQAVAKWMQQGGFEAHLRRMTRLYQKRRDFMVQQLRSFQDKGLPIHFEVPAGGMAIWLDTGKSIIGLKEKLLPQQVYLQTEVEFSRFNELPDDLPRTKYRFIRLGFAAMNEAEVTQGLDIVMNTLYGLVSE,not soluble
16,MKCRSKISLIAASLWLAAFSAQALEAKLKPEDLPLLVPEAQHATAAKRVTSRFTRSHYKQFNLDDQFSQAMFERYLEMLDYSRNIFTQADIDSFKAWSLQLDDQLKAGDNQIAYDLYNLSMEKRFERFQYALSLLDQEMTFDADESIELDRTKSPWPKDLKEINELWRQRVKYDALSLKLAGKEWPEIKETLDKRYNNAIKRLTQTKSEDVFQTYMNAFAREVDPHTSYLSPRNAEQFQSEMNLSLEGIGAVLQMTDDYTIIRSLVAGGPAALSKQLGEGDRIIGVGQEGEDVVDVVGWRLDDVVQLIKGPKGSKVKLLVLPEGKDAKSHVVTIVRDKIRLEDRAVKSEVIEKAGKKIGVLEVPSFYVGLAQDTEKLLAELKAKKVDGIIVDLRNNGGGALTEATALSGLFITSGPVVQVRDSYGRVNVNSDTDGSISYSGPMTVLINRYSASASEIFAAAMQDYGRAIILGENSFGKGTVQQHRSLNHIYDLFDKELGYVQYTIQKFYRIDGGSTQNKGVVPDIAYPTAIAPSETGESVEDNALPWDSIDKAKYERLNNFNTIIASLEAKHQQRVANDLEFGFIEQDIAKYRAEKDDNLLSLNEKVRKEESAKADEERLARINQRQKALGKSTYASLQDIPKDYEAPDAYLDESVNIMLDMISR,not soluble
17,MKDTTRNTYLAVDFGGGSGRVIAGSLLQGKLELEEIHRFTNRQVKLGNHVYWDFPALFEDMKTGLKLAAQKGYHVKGIGIDTWGVDFGLIDKKGNLLGNPVCYRDARTDGMPDKVFQILDAQKHYACTGIQVMPINTLFQLYSMQQNQDVLLEVAQRLLFMPDLFSYYLTGVANNEYCIASTSELLDARQRNWSMDTIRALGLPEHLFGEIILPGTVRGTLKEEIGRETGLGPVDIIAVGSHDTASAVAAVPATEGQVAFLSSGTWSLLGVEVDEPILTEEARLAQFTNEGGVGGHIRFLQNITGLWILQRLMSEWKLRGEEQSYDTILPQAADAEIDTIIPVDDAEFMNPENMETALLNYCRNHSLKVPGNKAEMVKCVLQSLAFKYREAVAQLNRCLPSPIHRLNIIGGGSQNKLLNQLTANALGIPVYAGPVEATAMGNILTQAMAKGEISSLREIREVVSHSVTPQVYYPEK,not soluble

# — the DeepSol protein solubility set
